Experimental data: publication PMC4570275

Biological target: Glucocorticoid-induced TNFR-related protein (GITR) (mouse (endogenous in CD4+ T cells of mice)) (UniProt O35714)
Sequence of UniProt O35714 (O35714 20-228): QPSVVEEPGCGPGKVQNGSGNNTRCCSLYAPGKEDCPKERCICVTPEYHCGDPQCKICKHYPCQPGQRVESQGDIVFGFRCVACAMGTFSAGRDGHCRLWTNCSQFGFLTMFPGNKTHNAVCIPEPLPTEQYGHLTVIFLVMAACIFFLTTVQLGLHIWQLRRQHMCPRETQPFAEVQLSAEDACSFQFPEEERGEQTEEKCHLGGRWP

percent Foxp3+ T cells by flow cytometry: OT-II CD4+ T cells activated with OVA and autologous APCs, TGF-β and IL-2, 3 days; >60% without GITR stimulation: 10%
percent Foxp3+ T cells by flow cytometry: WT B6 naive CD4+ T cells activated 3 days under iTreg-polarizing conditions with His-GITR Ligand (200 ng/ml plus anti-His mAb); ∼65% without GITR ligation: 4%
percent IL-9+ Th9 cells by flow cytometry: WT B6 naive CD4+ T cells activated 3 days under iTreg-polarizing conditions with GITR ligation: 30%
Substance: His-tagged recombinant mouse GITR Ligand (from UniProt Q7TS55 1-173)
